From US20060177918

System: Myelin Basic Protein (Upstate USA, Inc. cat. no: 13-104)

Substance | increase in fluorescence over time (real-time kinase assay)
MAP kinase1/Erk1 (Upstate USA, Inc.) | greater than 4 fold increase in fluorescence over time
MAP kinase2/Erk2 (Upstate USA, Inc.) | greater than 4 fold increase in fluorescence over time
PKCβII (Upstate USA, Inc.) | greater than 4 fold increase in fluorescence over time
